In assay [1] the target is T1, P-selectin expressed on the surface of CHO cells (CHO:P-selectin cell line) (UniProt P16109 42-830, limits assumed).
T1 construct: whole, on cells
T1 sequence (looked up): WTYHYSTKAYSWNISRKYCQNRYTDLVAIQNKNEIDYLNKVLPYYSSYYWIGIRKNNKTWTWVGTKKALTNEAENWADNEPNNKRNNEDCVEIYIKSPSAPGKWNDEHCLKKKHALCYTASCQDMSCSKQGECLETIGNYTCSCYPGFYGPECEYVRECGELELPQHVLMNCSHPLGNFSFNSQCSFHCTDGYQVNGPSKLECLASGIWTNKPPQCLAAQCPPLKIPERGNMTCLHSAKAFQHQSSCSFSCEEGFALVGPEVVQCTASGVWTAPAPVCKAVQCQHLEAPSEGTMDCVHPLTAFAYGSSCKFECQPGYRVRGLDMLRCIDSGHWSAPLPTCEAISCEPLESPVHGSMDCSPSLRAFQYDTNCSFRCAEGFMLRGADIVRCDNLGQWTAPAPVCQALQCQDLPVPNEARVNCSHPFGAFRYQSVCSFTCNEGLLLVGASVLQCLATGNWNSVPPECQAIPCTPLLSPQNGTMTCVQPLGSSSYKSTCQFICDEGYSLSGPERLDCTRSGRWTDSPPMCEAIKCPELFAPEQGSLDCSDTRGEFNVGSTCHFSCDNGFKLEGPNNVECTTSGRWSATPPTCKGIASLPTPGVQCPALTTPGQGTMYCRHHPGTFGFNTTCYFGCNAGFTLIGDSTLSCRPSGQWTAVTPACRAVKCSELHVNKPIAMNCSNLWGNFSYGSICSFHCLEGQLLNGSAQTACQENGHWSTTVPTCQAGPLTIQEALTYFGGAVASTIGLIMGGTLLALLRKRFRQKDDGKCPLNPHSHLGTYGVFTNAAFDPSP
As to the kind of experiment: adhesion of 3H-thymidine labeled CHO:P-selectin cells to transfected COS cells, scintillation counting.

For assay [2], the target named is T1, P-selectin expressed on the surface of …. As to the kind of experiment: conditioned medium coated onto plastic dishes, binding of CHO:P-selectin cells; reference is sPSL.T7 without PACE.

From EP1396542B1 (Genetics Institute, LLC, dated 2011) come the findings set out here.

B1: P-selectin ligand protein, full length, expressed on COS cells co-transfected with pMT21:PL85 and the 3/4FT gene (pEA.3/4FT) (ligand)
chain: QATEYEYLDYDFLPETEPPEMLRNSTDTTPLTGPGTPESTTVEPAARRSTGLDAGGAVTELTTELANMGNLSTDSAAMEIQTTQPAATEAQTTPLAATEAQTTRLTATEAQTTPLAATEAQTTPPAATEAQTTQPTGLEAQTTAPAAMEAQTTAPAAMEAQTTPPAAMEAQTTQTTAMEAQTTAPEATEAQTTQPTATEAQTTPLAAMEALSTEPSATEALSMEPTTKRGLFIPFSVSSVTHKGIPMAASNLSVNYPVGAPDHISVKQCLLAILILALVATIFFVCTVVLAVRLSRKGHMYPVRNYSPTEMVCISSLLPDGGEGPSATANGGLSKAKSPGLTPEPREDREGDDLTLHSFLP
modifications: glycoprotein made in cells co-expressing (α1,3/1,4) fucosyltransferase (3/4FT)
notes: also called PSL; protein encoded by pMT21:PL85
For B1, the “fold binding of CHO:P-selectin cells relative to COS mock cells” value in assay [1] was roughly 5.4 fold.

B2: sPSL.T7 co-expressed with 3/4FT and PACE (PACE-cleaved soluble P-selectin ligand) (ligand, not shown: large carriers)
chain: QATEYEYLDYDFLPETEPPEMLRNSTDTTPLTGPGTPESTTVEPAARRSTGLDAGGAVTELTTELANMGNLSTDSAAMEIQTTQPAATEAQTTPLAATEAQTTRLTATEAQTTPLAATEAQTTPPAATEAQTTQPTGLEAQTTAPAAMEAQTTAPAAMEAQTTPPAAMEAQTTQTTAMEAQTTAPEATEAQTTQPTATEAQTTPLAAMEALSTEPSATEALSMEPTTKRGLFIPFSVSSVTHKGIPMAASNLSV
modifications: glycoprotein made in cells co-expressing 3/4FT
notes: also called PACE-cleaved P-selectin ligand; sPSL.T7 from the CP/PSL-T7 (R4.1) CHO-PACE line
As to B2, the “fold increase in bound CHO:P-selectin cells against P-selectin ligand not co-expressed with PACE” value in assay [2] is roughly 2 fold.
